Data: the supplement of paper PMC9170038

Test system: MS2 coat protein
Assay: apparent KD of MS2 coat protein; designed switch direction (-1 OFF switch, 1 ON switch): 1; higher = weaker reporter binding
Outline: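 Transcription of designed RNA switches on Illumina chips was done by stalled E. coli RNA polymerase. SNAP-549-labelled MS2 coat protein was then titrated in doubling steps from 0.7 or 1.5 nM to 3 µM, with steps of 0.8–1.5 h at the lowest and 10–20 min at the highest concentration. The per-design median over clusters of curve-fitted normalised fluorescence is reported as apparent KD.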

[1] = input ligand: microRNA oligo, concentration not stated
[2] = Eterna round: R95, input ligand: FMN 200 uM
[3] = Eterna round: R95, input ligand: microRNA oligo, concentration not stated
[4] = Eterna round: R95, input ligand: none

| Sequence | apparent KD of MS2 coat protein (input ligand: FMN 200 uM) [nM] | apparent KD of MS2 coat protein [1] [nM] | apparent KD of MS2 coat protein (input ligand: none) [nM] | apparent KD of MS2 coat protein [2] [nM] | apparent KD of MS2 coat protein [3] [nM] | apparent KD of MS2 coat protein [4] [nM] |
| --- | --- | --- | --- | --- | --- | --- |
| AUUAUUUAUGCAGGAUAUGAUUAACAUGAGGAUCACCCAUGUGGUGUUGUGAGUAAGGAGAGUGAUCAGAAGGGCAUUUUUUUU [JMF's solution 22] (Eterna round: R96, puzzle: Same State NG 2) | 673 | 377 | 447 | – | – | – |
| AUUGCUUUCGCAGGAUAUGAUGCGAAAAUUGCGUCAGAAGGGUGGAGUCUCUCAUUGCUAGAGGACAUGAGGAUCACCCAUGUC [SameState NG1 #85] (Eterna round: R96, puzzle: Same State NG 1) | 188 | 309 | 541 | – | – | – |
| CAAUAAUGUGGAGGAUAUGGGAGGUCAACACAUGAGGAUCACCCAUGUAGAUAGUGAGGCCAAGCCUAGAAGGCCACAAUCAGC [Eternabot solution 20] (Eterna round: R96, puzzle: Same State NG 2) | 12.6 | 65.5 | 95.9 | – | – | – |
| CACCCAAAGGAAGGAUAUAGGGACUCGAGGACAACAUGAGGAUCACCCAUGUCCCGCCAUCGGCCUUAGAAGGUCCAAGGGAAC [Eternabot solution 7] (Eterna round: R96, puzzle: Same State NG 2) | 18.8 | 17.1 | 21.8 | – | – | – |
| CAGCCACAAAAUACGGCUGAAACAUGAGGAUCACCCAUGUCACAGGAUAUCCAACGGUAUACCGCGGAGAAGGGUGCGAAGAAC [Ceusso] (Eterna round: R96, puzzle: Same State NG 3) | 73.7 | 73.8 | 52.4 | – | – | – |
| CAGCGCUGUCGAGAGGAUAUGCAGUGAUGGACAUGAGGAUCACCCAUGUUAGCGAUAGCAUUACAGUAGAAGGCUCUACAGCUGC [Soteed - 14] (puzzle: Same State 2) | – | – | – | 13 | 16.4 | 19.5 |
| CAGCGCUGUCGAGAGGAUAUGCAGUGAUGGACAUGAGGAUCACCCAUGUUAGCGAUAGCAUUACGGUAGAAGGCUCUACAGCUGC [Soteed - 13] (puzzle: Same State 2) | – | – | – | – | 16.4 | – |
| CAGCGCUGUCGAGAGGAUAUGCGGUGAUGGACAUGAGGAUCACCCAUGUUAGCGACAGCAUCACGGCAGAAGGCUCUACCGCUGC [Soteed Omei mod 18] (Eterna round: R96, puzzle: Same State 2) | 19.9 | 24.1 | 60.7 | – | – | – |
| CAGCGCUGUCGAGAGGAUAUGCGGUGAUGGACAUGAGGAUCACCCAUGUUAGCGACAGCAUCACGGCAGAAGGCUCUACCGCUGC [Soteed Omei mod 18] (puzzle: Same State 2) | – | – | – | 19.3 | 18.8 | 30.3 |
| CAGCGCUGUCGAGAGGAUAUGCGGUGAUGGACAUGAGGAUCACCCAUGUUAGCGACAGCAUUACGGUAGAAGGCUUCACAGCUGC [Soteed Omei mod 15] (Eterna round: R96, puzzle: Same State 2) | 287 | 14.4 | 55.7 | – | – | – |
| CAGCGCUGUCGAGAGGAUAUGCGGUGAUGGACAUGAGGAUCACCCAUGUUAGCGACAGCAUUACGGUAGAAGGCUUCACAGCUGC [Soteed Omei mod 15] (puzzle: Same State 2) | – | – | – | 61 | 33.3 | 41.8 |
| CAUUGGACAUCCAGUGAGACAUGAGGAUCACCCAUGUAGGCGCAGGAUAUGCGGGUUCGGUGCUCGCAGAAGGGUGAAGAAAAC [Veenin] (Eterna round: R96, puzzle: Same State NG 3) | 129 | 98.2 | 114 | – | – | – |
| CCAGCUUCGGCAGGAUAUGGCGCGCCACUACGCCCAGAAGGGCCGGAAGAUACUACAACCACUACAUGAGGAUCACCCAUGUCA [Eternabot solution 1] (Eterna round: R96, puzzle: Same State NG 1) | 30.7 | 5.79 | 66.8 | – | – | – |
| CCAGGACAUGAGGAUCACCCAUGUGCUUAAUAUGGAGAAUCUCAGGAUAUCAUGAGGAUCACCCAUGAGAAGGGAGAUCCGAGG (Eterna round: R96, puzzle: Same State NG 3) | 144 | 118 | 152 | – | – | – |
| CCAUGGUAACAUGAGGAUCACCCAUGUACAAGCUUUUUGCUCGUCUUACCCGGCGCGCCCAUUAUGGGCGCGCCGGG [Nishu_Seq3] (puzzle: Sensor for hsa-mir-208a version 2) | – | – | – | 41.1 | 45.4 | 32.5 |
| CCGAUGCAAAUAAAACAUGAGGAUCACCCAUGUGAGACACAUGAGGAUAUGCAGGUCAAAGACUUGCAGAAGGCAUAGCGUCGG [JL SSNG3 3.87] (Eterna round: R96, puzzle: Same State NG 3) | 24.1 | 227 | 270 | – | – | – |
| CCGAUGGUAUACUAGGAUAUGGGCGCCCUUACAUGAGGAUCACCCAUGUUAUCACAAAUCCGCGGCCAGAAGGAGUUCAUGGGAG [Ustiririra] (Eterna round: R96, puzzle: Same State 2) | 165 | 173 | 138 | – | – | – |
| CCUGCGAUAAGCGAGCGAACAUGAGGAUCACCCAUGUGGCGGCAGGAUAUGGGUGACCCAGCGACUCAGAAGGGCCGAAGCUAA [Eternabot solution 8] (Eterna round: R96, puzzle: Same State NG 3) | 49.1 | 11.9 | 23.2 | – | – | – |
| CGAAAGAGGUGAGGAUAUGCAGAGGAUCACCCUGUAGAAGGCAUCAGGUGAGGAUAUGCAGAGGAUCACCCUGUAGAAGGCAUC [pwkr ssNG DX.12] (Eterna round: R96, puzzle: Same State NG 1) | 151 | 336 | 596 | – | – | – |
| CGCAUCCUUGUUACAUGAGGAUCACCCAUGUUUUCGAGUGGAGAGGAUAUCGUAACAGUAUUUUUCGAGAAGGCUCUAUAGUAU [JR_SSNG3_Sub081] (Eterna round: R96, puzzle: Same State NG 3) | 52.1 | 39 | 57.3 | – | – | – |
| CGCGGCAAGGAAGGAUAUGGGACGAAAACGUACCUAGAAGGUCCACAUGAGGAUCACCCAUGUACCAAGAAAACCGCUAAAUUA [Atceorer] (Eterna round: R96, puzzle: Same State NG 1) | 70.7 | 177 | 207 | – | – | – |
| CGCGGUAAGGAAGGAUAUGGGACGAAAACGUACCUAGAAGGUCCACAUGAGGAUCACCCAUGUACCAAGAAAGCCGCUCAAUUA [Uszabeon] (Eterna round: R96, puzzle: Same State NG 1) | 89.8 | 260 | 334 | – | – | – |
| CGGAAACGAUGAGGAUAUGCAGAGGAUCACCCUGUAGAAGGCAAGAGAUGAGGAUAUGCAGAGGAUCACCCUGUAGAAGGCAAC [pwkr ssNG DX.4] (Eterna round: R96, puzzle: Same State NG 1) | 146 | 56.5 | 84.9 | – | – | – |
| CGUAGGUAGCUGGAGGAUAUUCGAGUGGUAACAUGAGGAUCACCCAUGUGGUGAGAGGAACAUGAGGAGAAGGCUAGCUGCCUGC [JL-ss2-3.15 JL mod] (Eterna round: R96, puzzle: Same State 2) | 1290 | 925 | 906 | – | – | – |
| CGUAGGUAGCUGGAGGAUAUUCGAGUGGUAACAUGAGGAUCACCCAUGUGGUGAGAGGAACAUGAGGAGAAGGCUAGCUGCCUGC [JL-ss2-3.15 JL mod] (puzzle: Same State 2) | – | – | – | 118 | 96.2 | 76.9 |
| CGUCCAGCCUGAGCUGGACAAAAGCAUGUACAUGAGGAUCACCCAUGUUCAUGUACAAGCUUUUUGCUCGUCUUACA [salish99_208a_r3_091x] (puzzle: Sensor for hsa-mir-208a) | – | – | – | 691 | 16.2 | 695 |
| CGUCCGGCCUGUGCUGGCCGGUGGCUUGUACAUGAGGAUCACCCAUGUUCUUGUGCUGGCUUUUUGCUCGUCUUGUG [salish99_mir208a_021] (puzzle: Sensor for hsa-mir-208a) | – | – | – | 37 | 18.9 | 43.8 |
